Series [1] concerns FAM-LANA1-22 (Kaposi's sarcoma-associated herpesvirus). In words: fluorescence polarization. The note with it: FP: 10 mM Tris-HCl pH 8.0, 0.2 mM EDTA, 5 mM 2-mercaptoethanol, 10 mM NaCl, 30 min incubation at 4 C, EMSA: 6% PAGE, 10 mM HEPES-Na pH 8.0, 0.2 mM EDTA. For orientation: In fluorescence polarisation assays a small probe gives low polarisation when free and higher when bound to something large.

The subject of series [2] is Cy3/Cy5-labeled mononucleosomes (603 DNA, 147 bp). Nature of the series: Single-molecule FRET (spFRET) of nucleosome-peptide interactions. The note with it: 10 μM peptide. It is filed as biochemical, H. sapiens. From the text: Non-fluorescently labeled nuclesomal DNA fragments were obtained as follows. pUC57 plasmids containing eight repeats of the high-affinity 147 bp Widom 603 sequence were amplified in E. coli XL-10 stain and purified via alkaline lysis (see details in Supplementary Materials and Methods). The Widom 603 fragments were released via cleavage with EcoRV and separated from parent plasmid with polyethylene glycol precipitation in order to clear the vector backbone as described in [86]. Nucleosomal DNA fragments fluorescently labeled at the 35 and 112 bp positions were obtained following established protocols. […]
NCPs were reconstituted by mixing 147 bp Widom 603 DNA and histone octamers at a 1:1.15 molar ratio. […] Fluorescently labeled nucleosomes were detected by in-gel FRET using a Typhoon scanner (GE Healthcare, Chicago, IL, USA) with excitation at 532 nm laser and emission at 670 nm (FRET between Cy3 and Cy5) or 580 nm (Cy3 signal) (Supplementary Figure S5).
Single-particle FRET measurements were conducted with LSM710-Confocor3 laser scanning confocal microscope (Carl Zeiss, Jena, Germany) as described previously. […] To evaluate the level of background signal and reveal fluorescence bursts, spFRET data were analyzed using the FretBursts version 0.7.1 software. […]

Series [3] deals with nucleosome (H. sapiens canonical histone octamer on 147 bp Widom 603 DNA) (H. sapiens) (UniProt P04908). Nature of the series: fluorescence polarisation; 100 nM FAM-LANA_(1-22) as tracer, nucleosome concentration varied by two-fold serial dilution, 30 min at +4 C; 10 mM TrisHCl pH 8.0, 200 uM EDTA, 5 mM 2-mercaptoethanol, 10 mM NaCl; simple direct binding model with identical, non-interacting sites.

Entries after “also recorded” stand apart in the source; their conditions may differ.

What is called Kd is the concentration at which binding is half-saturated. A high value points to a looser complex. Consider Widom 603 nucleosome, for which the Kd in series [1] amounted to 0.4 µM.
Take “PNVRRSNRIRLKPLEYWRGERIDYQ [CENP-Cmotif, fragment of CENP-C protein (amino acids 710–734) from R. norvegicus]”: the “shift of EPR value distribution” value in series [2] (1 nM nucleosomes) was “shift of the EPR value distribution towards higher EPR values; also recorded: makes nucleosomes, on average, more compact”. In addition, the “effect on average nucleosome compactness, compared with LANA1-22” value in series [2] (spFRET) was “higher than that of LANA1-22; also recorded: makes nucleosomes more compact than LANA1-22, on average”.
Substance “FAM-labeled LANA_(1-22) peptide (from UniProt Q9QR71 1-22)” registered a Kd in series [3] of 0.4 µM.
